B1: GFPnb-SpyCatcher (VHH)
VHH: MVQLVESGGALVQPGGSLRLSCAASGFPVNRYSMRWYRQAPGKEREWVAGMSSAGDRSSYEDSVKGRFTISRDDARNTVYLQMNSLKPEDTAVYYCNVNVGFEYWGQGTQVTVSS
notes: also called GFPnb-SpC; GFPNanobody-SpyCatcher
B2: GFPnb-SpC EQ (VHH)
VHH: MVQLVESGGALVQPGGSLRLSCAASGFPVNRYSMRWYRQAPGKEREWVAGMSSAGDRSSYEDSVKGRFTISRDDARNTVYLQMNSLKPEDTAVYYCNVNVGFEYWGQGTQVTVSS

Columns and labels:
ssTorA(3×)-MBP-SpT [1] = experiment: overview table of covalent ligation to inclusion bodies
ssTorA(3×)-MBP-SpT [2] = experiment: covalent coupling to inclusion bodies in PBS, 25 °C 2 h; SDS-PAGE and Coomassie staining
Method: The mixtures were incubated at 25° C. for 2h. The inclusion bodies were collected through centrifugation and resuspended in PBS.

Binder	binding result (ssTorA(3×)-MBP-SpT [1])	binding result (ssTorA(3×)-MBP-SpT [2])
B1	binds	
B2		no binding (tested: 3.2 µM)

Reference: patent US20220064691A1 (ABERA BIOSCIENCE, published 2022)
